Laboratory results as given in the domain aggregation screens of Martell et al. (2025).

Experiment: soluble fraction after stress (log2 fold change); higher = more stays soluble; pooled small domains, quantitative proteomics
Conditions: stress: 75 degC
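Further: 20 min heating vs room temperature control held 20 min.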

Sequence	soluble fraction (log2)
HMLISKNLLGFTIKNTSGVTFGTLKDIMWLPSNDVYVIDNNGKEYLIPVISEIVKSINYDKGSITIFP	-0.4
HMLKASEVLPYVFTDKFFIDDLNLKQDQILGFLEYIDSKLPSQKLLQVSQQFQLIDFLINESKNYKNQ	-1.68
HMLKDININVTGLDQISNAKLINNLNLLKMNNLFFLDEKKIKKILNSNNLIEKFFIFKKYPSTLDIKVYKT	0.177
HMLKHNLLSELSRIEGVGAVKRKALMDKFGTVENIKRASEEELSEVAGIGPTLARTIKEQMNKDE	-0.133
HMLKKRKPMSGVGVIVKGMLTGTVTGTDGSYALKARPNDELSFSFLGYKTQEVFVGSKSTIDITLVDEA	-0.111
HMLKLEEIQPNATVRGILPDALITVVNVKWFGSEALELTYKDTSGRVANQLLFRDDQPRLEIVE	-1.98
HMLKLEPYTINEINSLQELYDLGNVRALETLISIYKDKNQVYDTRFYVLDILSKYDNPLIQEALEESITN	-1.39
HMLKLPVEYLNLKYQLMHATSLDKPNNLMKLDEKLGKIIDVYYDDLPVDEQRVVDILQSKLYSY	-0.489
HMLKLYILTDGKNYVMDDPIHPGRVMYSTSPVNAKKFTFKQARALLNNKSKKLSWIRSFNMVDDSSGEKI	-1.44
HMLKREDEVIVVAGKDKGKRGTITQLVGDDRVIVAGVNMVKRHTKPNPNLGQPGGIVEREASLHISNV	0.244
HMLKVHPRDQEENRLLLLKGERLYEESTGDTRVMIDMWLRKFEEALNSRSRENIEDARRELKEQLAELDN	-0.185
HMLLAPLRLGAAPDIKAQAPLATILARHNGEMEAKDLWQRFGGEIDAFYLQLKTEVAHGWIVEPEPA	-3.01
HMLLELINLQVKILENEELKIIGKVIDLENEKNNLLVIELLKDQKKVLVPFVKEIVPLIDIKNNFIMINPP	-0.903
HMLLFNVADIVKRAKRVLNFKTDAELAAYLGVSRPTLSNWIARNGIDFPLLLEKLKEIDYNWLLVGKGKPE	-2.74
HMLLGPDALTNRELDVLALLERRLSNKEIGALLYISPRTVKRHTINIYQKLHVNNRRAAVAQAKALGLMPD	-1.9
HMLLKIRPDLDGNEIMKLLNIAAGPNVGKAYEHLLELRLEHGPLGKERAEQELMNWWSARSQ	-0.898
HMLLNSLIDTLAAEKATVVPGTEVFKLYDTYGFPWELTEEIASERGFTIDHEGFEAAMKEQRERAREARV	-0.104
HMLLNTSQLKELYNRYDKKNSSLISIPFSAISDEPLKFYKWYAALFQIELNVKAFADVDSKQIIIYKGTK	-3.37
HMLLRSEDAIELGKSQLEDALAPYKIETLDTGTVQQLLDSLKLNSLESLYQEIGLGNRMSTIIAHRLLGE	-0.216
HMLLSFYGTYGNVKLTGKELEDLQKEFPFDYQARIDRLSAYMESSGRKYHSHFATIRSWAQDDAKKN	-2
HMLLSYDIAEYIEKYIHEHGLQPGDRLPTERELAAQLDITRVSVRQGYKRLLDQGVIRSENGYYVNPPR	-1.68
HMLLTDGLERRIDGDKNLHIRISLPMLVKGQIKLAKSGNNESTVKGIFKIESYPGSHPRDVVTEIIEG	-0.236
HMLLTHPKRVFTYELIMELVWNEDYTFYSKKAVSNHMSNLRKKLKVTPDALDYIKNIVGVGYKFEA	-1.11
HMLMKKTITHEIELLEFLKQIFPQSSTNKLRKMLSNGRIKINSEIVHKAKYKLQENDTFELLDNPT	-2.61
HMLNEIMDTINKYISDKRNNKVAQNILSAALDELNSQIRVGLKDLNPHSIEEFKENVINSPYIEFEQG	-0.0112
HMLNEWIDYIDEHIKEELTAKNLATVFGYSERHFRNVFQIYYDIKLNDYIRRRKLYFAAQELKKG	-1.27

Sequence	soluble fraction (log2)
HMLNMSVYDKQLLRAVENNPFISQRELARELHWNVDRVKYYMKKWKDKGGLRHVGSSHKGYWEVLVRIEEK	-0.891
HMLNNVDIHKLSEDLLLYKIKIDIKLKNIEDAISTIDYFSNKFPNSDLMPYVIYEKKLIDNI	-2.59
HMLNPLLLPFVEAEDFQVKLEILAAMEGKVGEEDLDILYEALDLPKMTGNIEEQIHSIKQYIEMRK	-1.18
HMLNPVEKLLLLSQLYIGRLKGSFVVKEKHHKSTILGEVRELSPEEITLKTDEGYRLIRVDDILTIQL	-4.44
HMLNSLDATQRLKLNKDGVVVFNFGKYVDQSVIDIFKKEKGYYNWMMSKDFSQQVKNIITKIYQEEIIG	-1.08
HMLNTLGADIRALRKARGLTLAELAQTLGRSVGWLSQVERDMSEPGINDLRDLARALDVSISSLFG	-1.8
HMLNWINSDVLERFNSLTKEKQKAIVADTETRLNGLSQARFKVAKSSSNERLIAEFAIEINEAIMRAAAL	-2.11
HMLPADETEARVLNVLGSEPLHVDEIRNQADLPIEKISATLAMMELKGMVRQVGGMNYVAMR	0.0378
HMLPANGEAIYHYLASGAIKGVGPVTAQRIVDKFGEDTFDVLENNPLWLAEIKGITRKTAENIGAAFAAQF	0.631
HMLPDAESFSYEVPYTKGDGGTYNYEGKIKAQNADAARDEIIRQAQVYFQMNPQFTPDYPSTTITSLD	0.14
HMLPDDDMLLNILTKLLIDKQFVINSHEIFDFIIKRANRSYEEMFILVNKLDQLSLEKKRQLTIPLIKEI	-0.881
HMLPDLQESIDELLNIVDQRLNTSFEELVSGVNTTEKAIAFFLALLETIKWGFIKAEQTNNENKINIEKNY	-0.146
HMLPDPIYEAFMMASDLGIVVRNGPQYAYPDKETGEVLYKALGREKFLQLMKDNDGLLTSIETEIRSM	-1.61
HMLPKTVTLIDPVSGVAKTVTWVPALTLYSARRKAGLNRVPNTATIDRGGRELTGKRGSTLQPGDVVRW	-0.664
HMLPPLGDQELELLRFITESAPITVREAAESYGKDRGLARTTVLTMMERLRAKGYLTRSESGAANEYSP	-0.64
HMLPPVFLTIDANENVIVRKDGEPVQTLNKFELGAFARSQAENSAEQPVVLAADKSIKYEVVMEVI	0.192
HMLPRLVLSPGTEVLATVMGKYENGMSLVKISSHLFAMDLPSRVQVGDSLRMTFLHQDARPTFALA	-1.11
HMLPSDLDEGNRRRQLIEGAARLFRAKGFDGTSTRDIAAAAGMRSGSPFYHFDSKNALLYVVVQEGM	-0.0127
HMLPSWLPTDAWEAFLEARVAMKARPTERAKGLLLGELSKLVSQGQDARAVLEQSVQRGWRGLFPVK	-1.76
HMLPSWPGVSEFEVARLLRRGRARGSLTLDEVIDVVRDAELTSELIAGIRSSLRAEGIDFEET	-0.731
HMLPTLSLSVKIYKGEGDIALDLEEMVKAFDQLNFGSYPFSEKGVHGTNIVIRGNDKKHMEEAEDKVRSLT	-0.438
HMLPVDALFAQHPALIVTLGQTEKLKHGAAIRDWHFADGTYRVYSETGEFLLLGTVKGQILTTVKSFFE	-2.24
HMLQARKFTHIQGYEFEAEFLRTNGEFVELQDPQGRKKWFPISNFIQDDKDFIKEQAGNLSS	-0.309
HMLQEFTLELATAVVQEFRDQPGALINALHKLQETFGYVDEAAMPVLARLFNLSRAEVHGVASFYHDFRRS	-1.67
HMLQEHVLEIRHPSWNDAFRIIGHDGWRTQTGAHAAILSYDEEELNIKWDSWGYERFIRDEKGIFRLAA	-0.11
HMLQESDPEALRGIVKSVLVDHAAVAEEYRAGKQSVLQFLVGQGMKASKGAGNPGLIRDLMLEEL	-0.237

Sequence	soluble fraction (log2)
HMLQLSDAISRVESFLQGQNRNLAFSIDENTERSVVTVLDSDTGDVIRQIPSEELLVLAKRIQELQQD	-0.0104
HMLQMSDSSALEAILDEVLGSEMGQKALSDIEAGNMKAMGFIIGQSMKLSKGQANPQIINKLLQQRLK	-0.326
HMLQNLGFKPDLEIRHFPGIVLPDIHRSKKTISLLYTLLAGDIKKLPENEINYKDSKIISSYLWTLLRYH	0.103
HMLQSGSDYLIEQVRMYTATGQREYMDNYFEELNTTRRRENALEYFAEHYGDNDAFTLLKSAMTTSQN	-0.258
HMLQVRRILQLLADGYSKRQISQQTAVSRNTIDSYEDRFHLTGKSYQELLSMEDGELSGIVYP	-1.11
HMLQVSDENFVVELVQKVLLDNPSSVQEYKNGKESVLQFLIGQAMKASKGTANPQIVKEIMLKLL	-0.68
HMLQYSQEIEEAQKILQNLGLYKGEIDGINGVNTKSAIKEFQRKSGLIIDGILGPNTTSALSKGAESYITV	0.0721
HMLRISEEVWALVEKTLREDWSPEQVSGKLKASGISVSHERIYQHIYADKRVGGTLWTHLRR	-2.47
HMLRLLEIIAGNEVSKEINSQVIKYYKALKNKKIEEINNLTPSYNKLIISFDLKKKNFREMKKIIEDISIN	-0.136
HMLRPEEMIYHEMLDAILDRRLEPGMKLVEEDLAKTFGVSRARIRATFLQLAHDKLINLVPNRGAFVAEP	-2
HMLRRNQVQSQVIPRENGSYVVELQLRDDVDSILRLELTAATEAMARDLADRFRQDPEGVYTRLLSALY	-2.22
HMLRTEYLTVNYAKASEVAELVTASGFLSSRGSITVDERTNTLLLQDTATNIDEVRFMLEQLD	-0.366
HMLSADLLDKIQRIDSLEQQGKYAQAEKEARALLSDPSITPSERASVQNILSSIARKKAAQAQ	-0.064
HMLSAGTTEQRLAMLQYQWEKQSETYSALGPNNGVVTLGQIRNTMAKIAELAGFKDAAQFWMPVPMDYDV	-0.217
HMLSAPMPGTVLEVHVKEGQRVREGQTLVVMEAMKMEHRVQAPRAGVVTKLHYSEGDRVDVGAILVEIG	-1.34
HMLSAQEIPVEDIATRDFVLAEDVVSAKKVLLLPKGVDLSWFGSAKKRLVQRLKSEGVTHIRVFA	-2.06
HMLSFSEAERAVLSLLNRRPDLSAKALASELAVSARTVERYLQSLQQKGKLLRVGAKKGGYWQV	-0.842
HMLSGNLTADAHVHRGLQALSDGRNEDALVDFTKATEVQADFAEAWNKRATVNYLLGRYDAAVLDIQKTLE	0.257
HMLSLDDAAFERYDLTMREREVLLLLLNRLTYEEIAERLFISTNTVKTHVGNVYKKTGVSSRKELVSK	-1.26
HMLSLGQQIRNHVLSRIESGEWPEGSRIPSEAKLVELLGASRMTIHIALRDLSAEGVLLRKQGAGTFVAPR	-2.68
HMLSRKEVFTVSQKDIEKNPIGAADKFFDGHVGIHKLLVVDEEDRLRGLFTLSDIERINDEQ	0.179
HMLSRTYDSSGPDVKIRGTAQTVADKYMSLARDAQSSGDRVMAENYLQHAEHYNRIIAAAQAQ	0.34
HMLSSEQQQKLDSLSRKELEVAELVSHGATNKMIARTMNITERTVKAHLTAIFQKMNIPDRLSLAIFFRDL	-2.79
HMLSSNEIKEIFALFDKSNRGQVATSELGTLVRALNLNPTETEITDMQSKVDPKGQGSFTLDVLEKVVQD	0.394
